Source: paper PMC7469494 (Autophagy, 2019)
Residue numbers refer to the chain shown, from its start. Numbers in names are those of the source.

B1: tNvj1 (Nvj1 construct comprising residues 229–321) (domain or fragment, S. cerevisiae, UniProt P38881 229-321, looked up)
chain: NREKDCSSSSEVESQSKCRKESTAEPDSLSRDTRTTSSLKSSTSFPISFKGSIDLKSLNQPSSLLHIQVSPTKSSNLDAQVNTEQAYSQPFRY
B2: Vac8[Δ19–33] (full-length Vac8 lacking the H1 helix, residues 19–33) (natural protein, S. cerevisiae, UniProt P39968 1-578, looked up)
chain: MGSCCSCLKDSSDEASVSYLEDKDQLDFYSGGPLKALTTLVYSDNLNLQRSAALAFAEITEKYVRQVSREVLEPILILLQSQDPQIQVAACAALGNLAVNNENKLLIVEMGGLEPLINQMMGDNVEVQCNAVGCITNLATRDDNKHKIATSGALIPLTKLAKSKHIRVQRNATGALLNMTHSEENRKELVNAGAVPVLVSLLSSTDPDVQYYCTTALSNIAVDEANRKKLAQTEPRLVSKLVSLMDSPSSRVKCQATLALRNLASDTSYQLEIVRAGGLPHLVKLIQSDSIPLVLASVACIRNISIHPLNEGLIVDAGFLKPLVRLLDYKDSEEIQCHAVSTLRNLAASSEKNRKEFFESGAVEKCKELALDSPVSVQSEISACFAILALADVSKLDLLEANILDALIPMTFSQNQEVSGNAAAALANLCSRVNNYTKIIEAWDRPNEGIRGFLIRFLKSDYATFEHIALWTILQLLESHNDKVEDLVKNDDDIINGVRKMADVTFERLQRSGIDVKNPGSNNNPSSNDNNSNNNDTGSEHQPVEDASLELYNITQQILQFLH
B3: Vac8[40–515] (domain or fragment, S. cerevisiae, UniProt P39968 40-515, looked up)
chain: QLDFYSGGPLKALTTLVYSDNLNLQRSAALAFAEITEKYVRQVSREVLEPILILLQSQDPQIQVAACAALGNLAVNNENKLLIVEMGGLEPLINQMMGDNVEVQCNAVGCITNLATRDDNKHKIATSGALIPLTKLAKSKHIRVQRNATGALLNMTHSEENRKELVNAGAVPVLVSLLSSTDPDVQYYCTTALSNIAVDEANRKKLAQTEPRLVSKLVSLMDSPSSRVKCQATLALRNLASDTSYQLEIVRAGGLPHLVKLIQSDSIPLVLASVACIRNISIHPLNEGLIVDAGFLKPLVRLLDYKDSEEIQCHAVSTLRNLAASSEKNRKEFFESGAVEKCKELALDSPVSVQSEISACFAILALADVSKLDLLEANILDALIPMTFSQNQEVSGNAAAALANLCSRVNNYTKIIEAWDRPNEGIRGFLIRFLKSDYATFEHIALWTILQLLESHNDKVEDLVKNDDDIINGVRK
B4: Vac8[40–515]^N60R,N62R (domain or fragment, S. cerevisiae, UniProt P39968 40-515, looked up)
chain: B3 chain with N21R, N23R
B5: Vac8[40–515]^N62R (domain or fragment, S. cerevisiae, UniProt P39968 40-515, looked up)
chain: B3 chain with N23R
B6: Vac8[40–578] (domain or fragment, S. cerevisiae, UniProt P39968 40-578, looked up)
chain: QLDFYSGGPLKALTTLVYSDNLNLQRSAALAFAEITEKYVRQVSREVLEPILILLQSQDPQIQVAACAALGNLAVNNENKLLIVEMGGLEPLINQMMGDNVEVQCNAVGCITNLATRDDNKHKIATSGALIPLTKLAKSKHIRVQRNATGALLNMTHSEENRKELVNAGAVPVLVSLLSSTDPDVQYYCTTALSNIAVDEANRKKLAQTEPRLVSKLVSLMDSPSSRVKCQATLALRNLASDTSYQLEIVRAGGLPHLVKLIQSDSIPLVLASVACIRNISIHPLNEGLIVDAGFLKPLVRLLDYKDSEEIQCHAVSTLRNLAASSEKNRKEFFESGAVEKCKELALDSPVSVQSEISACFAILALADVSKLDLLEANILDALIPMTFSQNQEVSGNAAAALANLCSRVNNYTKIIEAWDRPNEGIRGFLIRFLKSDYATFEHIALWTILQLLESHNDKVEDLVKNDDDIINGVRKMADVTFERLQRSGIDVKNPGSNNNPSSNDNNSNNNDTGSEHQPVEDASLELYNITQQILQFLH

Assays:
Vac8[40–578] = molecular target: B6; assay: SAXS
Vac8[40–515]^N60R,N62R = molecular target: B4; assay: SEC
Vac8[40–515]^N62R = molecular target: B5; assay: SEC
Vac8[40–515]^A51R = molecular target: T1, Vac8[40–515]^A51R (S. cerevisiae, UniProt P39968 40-515, A51R); assay: cross-linking
T1 sequence (looked up): B3 chain with A12R

Vac8[40–515] = molecular target: B3; assay: cross-linking
AUC = molecular target: the molecule itself; assay: AUC
SEC [1] = molecular target: the molecule itself; assay: SEC
SEC [2] = molecular target: the molecule itself; assay: SEC; remark: listed apart in the source
SAXS = molecular target: the molecule itself; assay: SAXS

B1
binding result (Vac8[40–578]): binds
binding result (Vac8[40–515]^N60R,N62R): binds
binding result (Vac8[40–515]^N62R): binds
binding result (Vac8[40–515]^A51R): binds
binding result (Vac8[40–515]): binds

B2
binding result (AUC): binds

B3
binding result (SEC [1]): binds

B4
binding result (SEC [2]): binds

B5
binding result (SEC [1]): binds

B6
binding result (SAXS): binds
